Experimental data taken from the nanobody polyreactivity screen of Harvey et al. (2022).

experiment: yeast display, Sf9 membrane polyspecificity reagent, FACS + sequencing; frameworks hold sequencing errors
Procedure, shortened: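 After 36–48 hours of galactose induction, yeast (Saccharomyces cerevisiae BJ5465) displaying a synthetic nanobody library were stained at 4 °C for 1 hour with 10% biotinylated, detergent-solubilized Sf9 membrane reagent. Streptavidin microbeads enriched the stained cells before FACS sorting into low and high (top ~1%) gates on anti-HA and streptavidin fluorescence. Each clone's polyreactivity label reflects its gate of origin.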

Row | Sequence | polyreactivity (PSR sort gate)
1 | QVQLVESGGGLVEAGGSLRLSCAASGLTFYLYDMGWYRQAPGKERELVAAISRRGTSTYYADSVKGRFTISRDNAKNSVYLQMNSLKPEDTAVYYCAADRKVGRDYWGQGTQVTVSS | high polyreactivity
2 | QVQLVESGGGLVEAGGSLRLSCAASGRIFHANAMGWYRQAPGKERELVAGISRHGGRTYYADSVKGRFTMSRDNAKNTVYLQMNSLNPEDTAVYYCNALDWQYKELDYYWGQGTQVTVSS | high polyreactivity
3 | QVQLVESGGGLVEAGGSLRLSCAASGRTFFSNAMVWYRQAPGKERELVAAINRGGSTYYADSVKGRFTSSRDNAKNTVNLQMNSLKPEDTAVYYCAAGYWSKNSIHYYYWGQGTQVTVSS | high polyreactivity
4 | QVQLVESGGGLVEAGGSLRLSCAASGSTFRWYAMGWYRQAPGKERELVAAISRSGASTYDSDSVKGRFTISRDNAKNTVYLQMNSLKPEDTAVYYCAAKQRTKGDYWRQGTQVTVSS | high polyreactivity
5 | QVQLVESGGGLVEAGGSLRLSCAASGSTFSVNAMGRYRQAPGKERELVAAISYRGGSTYYADSVKGRFTISRDNAKNTVYFQMNSLKPEDTAVYYCNAQRYRPGYWYDYWGQGTQVTVSS | high polyreactivity
6 | QVQLVESGGGLVEAGGSLRLSCAASGSTFTYYAMGWFRPAPGKERELVAAISSSGTSTYYADSVKGRFTLSRDNEKNTVSLQLNSLKPEDPAVYYCAADYYHTRGEADYEYAYWGKGTQVTVSS | low polyreactivity
7 | QVQLVESGGGLVEAGGSLRLSCAASGSTVWRYAMGWYRQAPGKERELVAAISWNGGSTYYADSVKGRFTISRDNAKNTVYLQMHSLKPEDTAVYYCARGYSWSVGYPRVQDMDYWGQGTQVTVSS | high polyreactivity
8 | QVQLVESGGGLVEAGGSLRLSCAASVRTFRYYDMGWFRQAPGKQWELVAAITARGGSTYYADSVKGRFTISRDNEKNTDYLQMNSQKPEDTAVYYCNAYPLQIFYLGNRQYNYWRQGTQVTVSS | high polyreactivity
9 | QVQLVESGGGLVEAGGSLRLSCADSGRIFLRNAMGWSRQAPGKERELVAAINRGGRTNYADSVKGRFTISRDNAKNTVYLQMNSLKPEDTAVYYCATERESPGYTEYDSWGQGTQVTVSS | low polyreactivity
10 | QVQLVESGGGLVEAGGSLRLSCADSGRTFGSYTMGWYRQAPGKEREWVAAITSGGRTNYADSVKGRFTISRDNAKNTVYLQMNSLKPEDTAVYYCAPGWRGGRYRYFAYDYWGQGTQVTVSS | high polyreactivity
11 | QVQLVESGGGLVEAGGSLRLTCEASGSIISYYVMGWYRQAPGKERELVAAISSSGGRTYYADSVKGRFTISRDNSKNTVYLQMNSLKPDDNAVYYCAARDRPSPYYYWGQGTQVNVSS | high polyreactivity
12 | QVQLVESGGGLVHAGCSLRLSCAASGLIFGSYSMGWYRQAPGKERELVAAISRSGGSTYYADSVKGRFTISRDNAKNTVYFLMNSLKPEDTAVYYCAARGYPLGIGRIKRNYWGQGKQVTVSS | high polyreactivity
13 | QVQLVESGGGLVHAGCSLRLSCAATGIIFAWYVMGWYRPAPGKERELVAAITQSGGSTFYADSVKGRFTISRDNAKNTVYLQMNSLKPEDTAVYYCNTEDFFNVPEMDSWGQGTQVTVSS | low polyreactivity
14 | QVQLVESGGGLVHAGGFLRLSCAASGRIFRWNAMGWYRQAPGKERELVAAISWNGGRTYYADSVKGRFTISRDNAKNRVYFQMNSLKPEDTAVYYCAAPHSVPDLHSGDYWGQGTQVTVSS | low polyreactivity
15 | QVQLVESGGGLVHAGGPLRLSCAPSGFIFRGYAMGWYRQAPGKEREFVAAISGSGGSTYYADSVKGRFTISRDNAKNTVFLQMNSLKTDDTAVYYCNARFWGVWGGYDYWGQGTQVTVSS | high polyreactivity
16 | QVQLVESGGGLVHAGGRLRLRCAASGSIFGYYAMAWYRHAPGKETELVAAISRRGGRTYYADSVKGRFTISRDNAKNTVYLQMNSLKPEDTAVYYCAKDRYYSELQYPYYRGDYWGQGTQVTVSS | high polyreactivity

Row | Sequence | polyreactivity (PSR sort gate)
17 | QVQLVESGGGLVHAGGSHRLSCAASGLIFYDNMGWYRQAPGKERELVAAISSSGGSTSYADSVKGRFTISRDNAKNTVYLQMNSLKPEDTAVYYCAADSYPAYLGFVGFDYWGQGTQVTVSS | low polyreactivity
18 | QVQLVESGGGLVHAGGSIRLSCAASGRIFDYNVMGWYRQAQGTERELVAAISWDGDSTYYADSVKGRFTISRDNAKHTVYLQKNSLKPEDTAVYYCNRVEGRTRWADEMNYWGQGTQVTVSS | low polyreactivity
19 | QVQLVESGGGLVHAGGSLLLSCAASRFIFASNAMGWYRKAPAKERELVAAISSSGGRTYYADSVKGRFTISRDNAKNSVYLQMNSLKPEDTAVYYCAADWLVTYDYWGQGTQVTVSS | high polyreactivity
20 | QVQLVESGGGLVHAGGSLRIICAASGRIFYIYAMGWYRQAPGKERELVAAITKSGGSTTHYADSVKGRFTISRDNAKNTVYLQMNSLKPEDTEVYYCAVDARYSRSKYGYWGHGTQVTVSS | high polyreactivity
21 | QVQLVESGGGLVHAGGSLRLRCAASGSIFYDNAMGWYTQAPWKERELVASIRWSGDSTYYADSVKGRFTISRDNAKNTVYLQMTSLKPEDTAVYYCAADPVEPYFTAIAYGYWGQGTQVTVSS | low polyreactivity
22 | QVQLVESGGGLVHAGGSLRLSCAACGRIFSRNAMGWYRQAPWKERELVAAITWRGGSTYYADSVKGRFTSSRDNAKNTVYLQMNSLKPEDTAVYYCNRDYRQYGYAYSGRFYWGHGTQVTVSS | high polyreactivity
23 | QVQLVESGGGLVHAGGSLRLSCAASARIFIAYMAWYRQAPGKERELVAAIDSGASTYYADSVKGRFTISRDNANNTVYLQMNSLKPEDTAVYYCAADVVYDYGGMDYWGQGTQVTVSS | low polyreactivity
24 | QVQLVESGGGLVHAGGSLRLSCAASGFIFARYAMGWYRQAPGKERELVAAINLSGGSTYYADSVKGRFTISRDNAKNTVYLQMNSLKPEDTAVYYCAATDPPYDAFEAKIDYQDFDYWGQGTQVTVSS | low polyreactivity
25 | QVQLVESGGGLVHAGGSLRLSCAASGFILTGNAMGWYRQAPGKERELVAAITSGGRTYYADSVKGRFTISRDNAKNTVYLQMNSLKPEETAVYYCAARRRWSQTPFDYWGQGTQVTVSS | high polyreactivity
26 | QVQLVESGGGLVHAGGSLRLSCAASGFTFRWYAMGWYRQAPGKERELVARIRGGGSTNYADSVKGRFTISRDNAKNTVYLQMNSLKPEDTAVYYCNTAYPWPPVKYDYWGQGTQVTVSS | high polyreactivity
27 | QVQLVESGGGLVHAGGSLRLSCAASGFTLHQYTMGWYRQAPGKERELVAAISDRGTRTYYADSVKGRFTISRDNAKNTVYLQMNSLKPEDPAVYYCAAYIAGVTGGSGYYYWGKGTQVTVSS | high polyreactivity
28 | QVQLVESGGGLVHAGGSLRLSCAASGIIFGVYAMGWYRQAPGKERELVAAISWSGGSTYYADSVKGRFTISRDNAKNNVYLQMNSLKPEDTAVYYCAADAYPHEDYYWGQGNQVTVSS | high polyreactivity
29 | QVQLVESGGGLVHAGGSLRLSCAASGIIFQYYLMGSYRPAPGKERELVAAIDKSGGSTYYADSVKGRFTISRDNAKNTVYLQMNSLKPEDTAVYYCAATSYAHKYYGYFGAIKYEYWGQGTQVTVSS | low polyreactivity
30 | QVQLVESGGGLVHAGGSLRLSCAASGLTFKRYAMGWSRQAPGKERELVASITGNGGSTYYADSVKGRFTISRDNAKNTVYSQMNSLKPEDTAVYYCNARRYVRTSQQPLYDYWGQGTQVTVSS | high polyreactivity
31 | QVQLVESGGGLVHAGGSLRLSCAASGRILGKYANGWYRQAPGKERELVAAINWRGGRTYADSVKGRFTISRDNSKNNVYLQMNSLKPEDTAVYYCAAVWQSPRPGYGYWGQGTQVTVSS | high polyreactivity
